{"source": "patent US20090202437A1", "about": "(UMC UTRECHT HOLDING B V, published 2009)", "molecular_target": "T1, recombinant human MASP-2 (consisting of the two complement control regions and the serine protease domain) (human, UniProt O00187 298-686)", "T1 construct": "domain: the two complement control regions and the serine protease domains; also called rMASP-2; MBL associated serine protease-2", "T1 sequence (O00187 298-686 limits assumed)": "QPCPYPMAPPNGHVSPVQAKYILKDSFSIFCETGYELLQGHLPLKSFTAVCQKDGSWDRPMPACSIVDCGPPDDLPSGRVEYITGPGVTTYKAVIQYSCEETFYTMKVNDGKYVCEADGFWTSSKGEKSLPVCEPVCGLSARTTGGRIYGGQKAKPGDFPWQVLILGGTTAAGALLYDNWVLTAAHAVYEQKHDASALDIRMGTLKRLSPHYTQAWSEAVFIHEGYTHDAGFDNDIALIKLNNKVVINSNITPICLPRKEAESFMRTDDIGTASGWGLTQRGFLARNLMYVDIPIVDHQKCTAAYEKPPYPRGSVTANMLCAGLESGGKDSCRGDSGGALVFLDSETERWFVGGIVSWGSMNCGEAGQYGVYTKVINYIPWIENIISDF", "experiment": "size-exclusion chromatography (Superose-6) of 125I-labelled rLPI incubated with rMASP-2", "data": [{"binder": "recombinant LPI (Lectin Pathway Inhibitor) of Staphylococcus aureus (other, also called rLPI; 125I-LPI) STSLPTSNEYQNEKLANELKSLLDELNVNELATGSLNTYYKRTIKISGQKAMYALKSKDFKKMSEAKYQLQKIYNEIDEALKSKY", "values": [{"measurement": "binding result", "value": "binds"}]}]}
